Among the targets are His-Erk1 (human, UniProt P27361 1-379); GST-Erk2 (human, UniProt P28482 1-360); GST-Erk1 (human, UniProt P27361 1-379).
What all share (assay): pull-down

Sequence of His-Erk1 (P27361 whole entry): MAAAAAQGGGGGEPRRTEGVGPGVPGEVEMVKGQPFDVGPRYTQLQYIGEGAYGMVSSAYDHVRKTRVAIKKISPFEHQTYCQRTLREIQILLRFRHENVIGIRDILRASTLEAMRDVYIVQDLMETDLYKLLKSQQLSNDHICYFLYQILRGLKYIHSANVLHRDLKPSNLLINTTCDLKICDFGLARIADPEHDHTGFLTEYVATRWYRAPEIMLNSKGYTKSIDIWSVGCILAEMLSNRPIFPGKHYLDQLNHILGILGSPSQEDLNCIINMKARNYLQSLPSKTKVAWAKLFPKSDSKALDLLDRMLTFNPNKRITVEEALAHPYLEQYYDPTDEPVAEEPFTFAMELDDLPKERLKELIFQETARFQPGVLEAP
Sequence of GST-Erk1 (P27361 whole entry): as above
Sequence of GST-Erk2 (P28482 whole entry): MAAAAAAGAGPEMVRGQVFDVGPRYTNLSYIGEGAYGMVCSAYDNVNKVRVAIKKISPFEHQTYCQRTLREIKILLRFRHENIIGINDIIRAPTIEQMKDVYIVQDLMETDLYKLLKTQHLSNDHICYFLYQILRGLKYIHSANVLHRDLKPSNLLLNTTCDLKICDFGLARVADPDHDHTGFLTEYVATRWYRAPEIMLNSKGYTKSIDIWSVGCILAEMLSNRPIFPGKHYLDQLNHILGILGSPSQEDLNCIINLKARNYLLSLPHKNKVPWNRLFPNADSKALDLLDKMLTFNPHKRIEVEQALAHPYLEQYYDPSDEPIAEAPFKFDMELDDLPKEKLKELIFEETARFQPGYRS

B1: GST-Arl4D (natural protein, human, UniProt P49703 1-201, looked up)
chain: MGNHLTEMAPTASSFLPHFQALHVVVIGLDSAGKTSLLYRLKFKEFVQSVPTKGFNTEKIRVPLGGSRGITFQVWDVGGQEKLRPLWRSYTRRTDGLVFVVDAAEAERLEEAKVELHRISRASDNQGVPVLVLANKQDQPGALSAAEVEKRLAVRELAAATLTHVQGCSAVDGLGLQQGLERLYEMILKRKKAARGGKKRR
In the case of B1, the binding result in the test with His-Erk1 is “binds”.

B2: His-Arl4D (natural protein, human, UniProt P49703 1-201, looked up)
chain: B1 chain
For B2, the binding result with GST-Erk2 and in the test with GST-Erk1 was “binds” in each case.

Source of the values: publication doi:10.1101/2024.12.02.626348 (bioRxiv, 2024).
